Substrate: CCCC(=O)Oc1ccc([N+](=O)[O-])cc1
Assay: spectrophotometric p-nitrophenol release
Assay type: biochemical, Beauveria bassiana
Details: 25 mM phosphate buffer pH 6.0, 50°C, 2 min, free enzyme, 0.05% Triton X-100 in the general assay, Hill coefficient n printed 1.46
From the text: spectrophotometric p-nitrophenol release on BbLA (Beauveria bassiana lipase A)

B1: BbLA (Beauveria bassiana lipase A) (Beauveria bassiana ARSEF 2860) (protein)
chain: LSADIDGAPLIHLDYATYRGSRVAGAGVDQFLGMRFAKPPLGDLRFRAPEEPFHEDQVQDATKLGALCVGTVDGSGVSPNDVFGEDCLFANLFKPANATTASKLPVWVFIQGGGYAHNSNGNYNGTQIVQQSGGNVVFVSFNYRVGVLGFLASEEVRKDGALNAGLLDQRLFLKWVQKYIGQFGGDPNHVVIHGDSAGGGSVSHHLTAYGGNDKENLFVGGIPESPFWPTQRKVDQMEFQYTRLLRDTKCDSLDCLRKLDVGALGNASQPSPFPEAHTEDPAPLWYWLPVIDGDLVQDNMYKQFLTGRFKRVPLLVGADTDEGTLFAVNASTETEVSSFLRANYPRLQEWQLDIVSTIYPKMKPLPKHAAYFPSAAAVYGDSTFVCAGNTMSDAISAFVGPDKLWNYRYNVADPEQVAEGFGVPHVSELGAIFGPDNIRGHEAKSLRTTNAPIVPVTMAYFTSFVRFLDPNTSRQPGSPLWQNWGAFVGEQGQRMRLETNNTAMETVPFDLVTKCALWKLLAESMDV
notes: 19-residue signal peptide removed (precursor 546 aa, 1,641 bp); alpha-factor secretion signal, C-terminal 6His (554 aa printed; b43 says N-terminal His); secreted by Komagataella pastoris GS115, N-glycosylated, about 78 kDa (60 kDa after EndoHf); Octyl-sepharose purified
B1 was tested, and the Km was 0.5546 µM.
